Results as given in patent US20250242012A1.

Target: soluble HRP-conjugated spike-RBD construct (HRP-RBD) of the SARS-CoV-2 neutralizing antibody ELISA a (SARS-CoV-2) (UniProt P0DTC2)

Work on “positive control reagent of the SARS-CoV-2 neutralizing antibody ELISA assay kit (Creative Diagnostics)” yielded a percent inhibition of 82.5%.
